Data reported in patent publication US20260042834A1, “ANTI-CORTICOTROPIN-RELEASING HORMONE ANTIBODIES AND POLYCYSTIC OVARY SYNDROME” (HBM ALPHA THERAPEUTICS, INC., priority 2022, published 2026).
Read-outs that look alike come from different tables or passages of the source.

T1: biotinylated CRH (Homo sapiens, UniProt P06850)
T1 construct: purchased GL Biochem 784751
T1 sequence (P06850 154-194): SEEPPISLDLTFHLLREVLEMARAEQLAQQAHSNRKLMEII


Tests used:
[1] = test system: human CRHR2; experiment: CRH-induced luciferase reporter blocking assay, CHO-CRE-hCRHR2 cells; assay type: cell-based
Protocol: (§1) To create CHO-CRE-hCRHR1, -hCRHR2, -mCRHR1, and -mCRHR2 reporter cell lines, pcDNA3.1-hCRHR1, -hCRHR2, -mCRHR1, and -mCRHR2 were introduced into CHO-CRE cells established above by electroporation as described above. Selection antibiotics hygromycin at 500 μg/ml and G418 at 1,000 μg/ml were employed. Individual established stable cell lines were characterized by both CRH and forskolin stimulation.
Activated GPCR proteins increase production of the intracellular cAMP. CHO-CRE-human CRHR1 stable clone 11 was generated by introduction of pcDNA3.1-human CRHR1 under the selection of G418 and hygromycin. Human CRHR1 expression in CHO-CRE-hCRHR1 Clone 11 was confirmed by flow cytometry (data not shown). To further validate that the cell line was functional, CHO-CRE-hCRHR1 Clone 11 cells were treated with forskolin and CRH peptide. […] Subsequently CHO-CRE-hCRHR2 Clone 32, -mCRHR1 Clone 22, and -mCRHR2 Clone 8 cell lines were established using similar methodology and validated with CRH treatment (data not shown).
Blocking CRHR1 by small molecules or neutralization of CRH peptide can reduce luciferase expression if the CRH-CRHR1 system works in CHO-CRE-hCRHR1 cells. Antalarmin, a small molecule CRHR1 antagonist, blocked CRH-mediated luciferase expression in CHO-CRE-hCRHR1 Clone 11 (data not shown). Furthermore, sheep anti-CRH polyclonal antibody reduced CRH-mediated luciferase expression in these cells (data not shown). Likewise, sheep anti-CRH polyclonal antibody blocked CRH-mediated luciferase expression in CHO-CRE-hCRHR2, CHO-CRE-mCRHR1, and CHO-CRE-mCRHR2 cells (data not shown).
(§2) Cells were digested by trypsin-EDTA (Life technologies, Cat #:12604-013), centrifuged at 1,000 rpm for 5 min, resuspended in growth medium, counted using a cell counter, seeded at a concentration of 5,000 cells per 100 μl in 96-well flat plates, and incubated overnight. 50 μl of 4× serially diluted antibodies was added (8 points, 1/4 diluted by growth medium) to plates containing CHO-CRE-hCRHR1 cells, and 50 μl of 4×CRH (4× is 2 nM, final is 0.5 nM) was added. Similarly, 4×CRH (4× is 0.4 nM, final is 0.1 nM) was added to CHO-CRE-hCRHR2 cells and CHO-CRE-mCRHR1 cells, and 4×CRH (4× is 20 nM, final is 5 nM) was added to CHO-CRE-mCRHR2 cells. Next, plates were incubated 4-6 hours at 37° C. in a CO2 incubator. 60 μl of culture medium was removed, to which was added 60 μl of Bio-Glo luciferase, followed by incubation for 10 min at RT. Plates were read in a luciferase plate reader (EnVision, PerkinElmer).

[2] = test system: mouse CRHR2; experiment: CRH-induced luciferase reporter blocking assay, CHO-CRE-mCRHR2 cells; assay type: cell-based
Protocol: as §1, with “stimulation. […]” for “stimulation.”
as §2

[3] = molecular target: T1, biotinylated CRH; experiment: Affinity determination with Octet; assay type: binding
Protocol: Octet® Red 96e was used for affinity measurement. Octet® running buffer was prepared by diluting kinetics buffer 10× (Fortebio, Cat #18-1105) in PBS according to the manufacturer's instructions. Two columns of SA sensors (Fortebio, Cat #18-5019) were hydrated in running buffer for 10 mins, one for ligand capturing and the other for reference. Antibodies were 2-fold diluted and added into a 96-well plate. 30 nM biotinylated CRH (GL Biochem, Cat #784751) was captured by the first column of SA sensors for 20 seconds, while reference sensors were dipped into buffer wells. After a 60-second baseline step, sensors were dipped into analyte and buffer wells successively, with the association and dissociation time of 180 seconds and 800 seconds, respectively. Sensors were regenerated in glycine pH1.5 (Cytiva, Cat #BR-1003-54) before the next cycle. […] Signals of reference wells and reference sensors were subtracted by selecting “Double reference” before data fitting.

[4] = molecular target: T2, N-terminal region plus central region, central region only, central region plus C-terminal region of CRH (Homo sapiens, UniProt P06850); experiment: ELISA determining the binding region of CRH; conditions: dash = no binding
T2 construct: N-terminal region plus the central region (CT biotin), the central region only (NT biotin or CT biotin)
Protocol: Streptavidin (Thermo, Cat: 21125) was diluted in PBS to a concentration of 2 μg/ml. 100 μl of diluted streptavidin was added per well to ELISA microplates, and the plates were incubated overnight at 4° C. Plates were blocked with ELISA blocking solution (containing 2% w/v BSA, 0.05% (v/v) Tween-20, pH 7.4 PBS buffer) at 37° C. for 1 hour, and then incubated with 1 μg/mL N-terminal region plus the central region (CT biotin), the central region only (NT biotin or CT biotin), or the central region plus C-terminal region (NT biotin) of CRH for 1 hour at 37° C. Plates were then washed and incubated with diluted anti-CRH antibody (Ab) at 15 μg/ml (100 nM, 10 diluted, 8 points) for 1 hour at 37° C. Subsequently, plates were washed and incubated with HRP-conjugated goat anti-human IgG (H+L) antibody (Jackson, Cat: 109-035-088) at 37° C. for 1 hour. 100 μL of 3,3′,5,5′-tetramethylbenzidine (TMB) substrate (Biopanda, Cat: TMB-S-003) was added, and the plates were incubated at room temperature for 15 minutes. 100 μL of ELISA stopping solution (Solarbio, Cat #: C1058) was added to terminate the reaction, and the optical density at 450 nm (OD450 nm) was determined by an ELISA plate reader (Molecular Devices, Spectra max 384 plus).

[5] = CHO-CRE-hCRHR2 cells, 0.1 nM CRH

Molecule | IC50 [1, 5] [nM] | IC50 ([1]; Table 9, hCRHR2) [nM] | IC50 ([2]; CHO-CRE-mCRHR2 cells, 5 nM CRH) [nM] | IC50 ([2]; Table 9, mCrhr2) [nM] | kdis [3] [s⁻¹] | kon [3] [M⁻¹ s⁻¹] | EC50 ([4]; central plus C-terminal region CRH peptide, NT-biotin (SEQ ID NO: 483), read-out: ELISA EC50 C-Ter-CRH (NT-Bion)) [nM] | EC50 ([4]; central region CRH peptide, CT-biotin (SEQ ID NO: 485), read-out: ELISA EC50 Central-CRH (CT-Bion)) [nM] | EC50 ([4]; central region CRH peptide, NT-biotin (SEQ ID NO: 484), read-out: ELISA EC50 Central-CRH (NT-Bion)) [nM]
PR302341: Series 10 anti-CRH mAb from immunized wildtype mice; VH SEQ ID NO: 280, VL SEQ ID NO: 339 (antibody, V domains shown, PR302341-1 VH, PR302341-2 VH, PR302341-3 VH, PR302341-4 VH,PR302341-5 VH, PR302341-6 VH, PR302341 VH; PR302341-13 VL, PR302341-14 VL, PR302341-15 VL, PR302341-16 VL,PR302341-17 VL, PR302341-18 VL, PR302341 VL) VH: EVQLQQSGPELVKPGASVKMSCKASGYTFTDYFMKWVKQSHGESLEWIGVINPNNGDIFYNQKFKGKATLTVDKSSSTAFMQLNSLTSEDSAVYSCARGTDRALFAYWGQGTLVAVSA VL: DVLMTQTPLSLPVSLGDQASISCRSGQSIVHSDGNTYLEWYLQRPGQSPRLLIYKVSNRFSGVPDRFSGSGSGTDFTLKISRVGAEDLGIYYCFQGSHIPWTFGGGTKLEVK | 0.244 | ~2.18 | 0.849 | 2.41 | 2.18e-07 | 1.01e+06 | – | – | –
PR302309-18: humanized variant of Series 7 mAb PR302309; VH SEQ ID NO: 263, VL SEQ ID NO: 318 (antibody, V domains shown, PR302309-15 VH, PR302309-18 VH; PR302309-17 VL, PR302309-18 VL, PR302309-19 VL, PR302309-2 VL,PR302309-8 VL) VH: QVQLVQSGAEVKKPGASVKVSCKASGYTFTNYGMNWVRQAPGQRLEWMGWINTYTGEPIYTDDFKGRVTITRDTSASTAYMELSSLRSEDTAVYYCARSTMITTGGVFAYWGQGTLVTVSS VL: DVVMTQSPLSLPVTLGQPASISCRSSQTIVHSDGNTYLEWYQQRPGQSPRLLIYKVSNRFSGVPDRFSGSGSGTDFTLKISRVEAEDLGVYYCFQGSHVPWTFGGGTKVEIK | – | – | – | – | <1e-07 | 126000 | > 100 | > 100 | > 100

Other lines, results leading:

IC50 [1, 5] [nM] | IC50 ([1]; Table 9, hCRHR2) [nM] | IC50 ([2]; CHO-CRE-mCRHR2 cells, 5 nM CRH) [nM] | IC50 ([2]; Table 9, mCrhr2) [nM] | kdis [3] [s⁻¹] | kon [3] [M⁻¹ s⁻¹] | EC50 ([4]; central plus C-terminal region CRH peptide, NT-biotin (SEQ ID NO: 483), read-out: ELISA EC50 C-Ter-CRH (NT-Bion)) [nM] | EC50 ([4]; central region CRH peptide, CT-biotin (SEQ ID NO: 485), read-out: ELISA EC50 Central-CRH (CT-Bion)) [nM] | EC50 ([4]; central region CRH peptide, NT-biotin (SEQ ID NO: 484), read-out: ELISA EC50 Central-CRH (NT-Bion)) [nM] | Molecule
2.08 | – | 1.98 | – | <1e-07 | 6840 | – | – | – | PR302334-10: humanized variant of Series 9 mAb PR302334; VH SEQ ID NO: 273, VL SEQ ID NO: 328 (antibody, V domains shown, PR302334-10 VH, PR302334-11 VH, PR302334-12 VH, PR302334-14 VH,PR302334-7 VH, PR302334-8 VH, PR302334-9 VH; PR302334-10 VL, PR302334-24 VL, PR302334-26 VL, PR302334-4 VL) VH: EVQLVESGGGLVQPGGSLRLSCAASGFTFSTYAMSWVRQAPGKGLEWVASIRSGGTTYYPDSVKGRFTISRDNSKNTLYLQMNSLRAEDTAVYYCTRGIDWGQGTTVTVSS VL: DIVMTQSPDSLAVSLGERATINCKASQSVNNDVAWYQQKPGQPPRLLIYYASNRYTGVPDRFSGSGSGTDFTLTISSLQAEDLAVYFCQQDYSSWTFGGGTKVEIK
1.65 | – | 1.84 | – | <1e-07 | 302000 | – | – | – | PR302334-27: humanized variant of Series 9 mAb PR302334; VH SEQ ID NO: 277, VL SEQ ID NO: 330 (antibody, V domains shown, PR302334-18 VH, PR302334-26 VH, PR302334-27 VH; PR302334-12 VL, PR302334-25 VL, PR302334-27 VL, PR302334-6 VL) VH: EVQLVESGGGLVQPGGSLRLSCAASGFTFSTYAMSWVRQAPGKGLEWVASIRSGGTTYYPDSVKGRFTISRDNSKNSLYLQMNSLRAEDTAVYYCTRGIDWGQGTTVTVSS VL: DIQMTQSSLSASVSLGDRVTITCKASQSVNNDVAWYQQKPGKAPRLLIYYASNRYTGVPSRFSGSGSGTDFTFTISSLQPEDLATYFCQQDYSSWTFGGGTKVEIK
